Residue numbers refer to the chain shown, from its start. Read-outs that look alike come from different tables or passages of the source. Values belong to the binder of their own block, whether it stands above or below them.
Columns and labels:
hCFHR4 = experiment: SPR kinetics
[1] = target: T1, FHR-4 (coated on plate, C3 convertase assembly assay) (UniProt Q92496 20-331); experiment: C3 convertase assembly assay
T1 chain: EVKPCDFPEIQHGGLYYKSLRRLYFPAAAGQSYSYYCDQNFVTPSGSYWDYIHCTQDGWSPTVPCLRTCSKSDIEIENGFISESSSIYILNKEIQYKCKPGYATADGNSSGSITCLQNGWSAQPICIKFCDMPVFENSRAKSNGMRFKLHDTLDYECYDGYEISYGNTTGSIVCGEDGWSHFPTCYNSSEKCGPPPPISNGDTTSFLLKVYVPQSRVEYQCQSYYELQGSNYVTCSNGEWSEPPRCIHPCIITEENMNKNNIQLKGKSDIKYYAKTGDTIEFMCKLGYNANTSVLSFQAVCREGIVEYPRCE

hCFHR4b = target: T2, hCFHR4b; experiment: SPR kinetics
T2 chain: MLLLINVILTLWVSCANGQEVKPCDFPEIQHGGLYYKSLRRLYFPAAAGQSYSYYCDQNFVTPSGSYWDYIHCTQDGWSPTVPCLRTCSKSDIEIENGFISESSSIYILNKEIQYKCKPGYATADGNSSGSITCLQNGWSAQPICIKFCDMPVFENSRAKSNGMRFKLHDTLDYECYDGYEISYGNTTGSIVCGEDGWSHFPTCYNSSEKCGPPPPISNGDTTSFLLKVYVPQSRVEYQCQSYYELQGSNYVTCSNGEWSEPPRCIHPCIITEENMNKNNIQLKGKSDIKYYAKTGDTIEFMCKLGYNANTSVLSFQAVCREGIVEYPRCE

[2] = target: T1, FHR-4 (coated on plate, C3 convertase …); experiment: C3 convertase assembly assay

B1: ATX-P-566 (antibody, V domains shown)
VH: QVQLQQSGPGLVKPSQTLSLTCAISGDSVSSNSAAWNWIRQSPSRGLEWLGRTYYRSKWFNNYSVSVKSRIAINPDTSKNQFSLQLNSVTPEDTAVYYCARDLGELLDWYFDLWGRGTLVTVSA
VL: EIVLTQSPGTLSLSPGDRATLSCRASQSVRNSYVAWYQQKPGQAPRLLIYGASSRATGIPDRFSGSGSGTDFSLTIGRLEPEDFVVYYCQQYGNSPLTFGGGTKVEIKR
Kd (hCFHR4): 3.48 nM
IC50 [1]: 3.27 nM

B3: ATX-P-591 (antibody, V domains shown)
VH: QVQLVQSGAEVKKPGASVKVSCKASGYTFTSYGISWVRQAPGQGLEWMGWISAYNGNTNYAQKLQGRVTMTTDTSTSTAYMELRSLRSDDTAIYYCTRDLRGTAFDYWGQGTPVTVSS
VL: DIQMTQSPSSLSASVGDRVTITCRASQSINTYLNWYQQKPGKAPKLLIYAASSLQSGVPSRFSGSGSGTDFTLTISSLQPEDFATYSCQHSFTTPFTFGPGTKLEIKR
Kd (hCFHR4): 117 nM

B4: ATX-P-582 (antibody, V domains shown)
VH: QVQLQESGPGLVKPSGTLSLTCAVSGGSISISKWWSWVRQPPGKGLEWIGEIYHTGSTNYHPSLKSRVTISVDKSKNQFYLKLNSVTAADTAVYYCARDELRLGELSPSLDIWGQGTMVTVSS
VL: DIQMTQSPSSLSASVGDRVTITCRASQNINNYLNWFRQKPGKAPKLLIFAASSLQSGVPSRFSGSESGTDFTLTISSLQPEDFATYYCQQSYSTPLTFGGGTKVEIKR
Kd (hCFHR4): 10 nM

B6: ATX-P-592 (antibody, V domains shown)
VH: QVQLQQSGPGLVKPSQTLSLTCAISGDSVSSNSAAWNWIRQSPSRGLEWLGRTYYRSKWYSDYPLSVKSRITINPDTSKNQFSLQLNSVTPEDTAVYYCARDSGIVETTPFDYWGQGTLVTVSS
VL: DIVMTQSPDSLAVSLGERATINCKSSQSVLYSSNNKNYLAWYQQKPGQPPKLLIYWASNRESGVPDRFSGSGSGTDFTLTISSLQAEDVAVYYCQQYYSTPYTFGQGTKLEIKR
Kd (hCFHR4b): 0.973 nM
Kd (hCFHR4): 0.973 nM
IC50 [1]: 4.28 nM
IC50 [2]: 4.2 nM

B8: ATX-P-564 (antibody, V domains shown)
VH: EVQLVESGGGLVKPGGSLRLSCAASGFTFSSYTMNWVRQAPGKGLEWVSSISSSSSYTYYADSVRGRFTISRDNAKNSLYLQMSSLRAEDTAVYYCARSASIAAGMDVWGKGTTVTVSS
VL: DIVMTQSPLSLPVTPGEPASISCRSSQSLLHSTGYNFLDWYLQKPGLSPQLLIYLASNRASGVPDRFSGSGSGTDFTLKISRVEAEDVGVYYCMQALQTPYTFGQGTKLEIKR
Kd (hCFHR4): 3.56 nM
IC50 [1]: 3.94 nM

B9: ATX-P-587 (antibody, V domains shown)
VH: QVQLQQSGPGLVKPSQTLSLTCAISGDSVSSNSAAWNWIRQSPSRGLEWLGKTYYRSKWYNYYALSVKSRITINPDTSKNQFSLHLNSVTPEDTAVYYCARDGDYYLPSPFDLWGHGTMVTVSS
VL: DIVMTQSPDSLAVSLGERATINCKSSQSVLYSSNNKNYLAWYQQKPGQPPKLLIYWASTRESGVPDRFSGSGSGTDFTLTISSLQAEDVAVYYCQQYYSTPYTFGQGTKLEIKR
Kd (hCFHR4): 4.26 nM

B10: ATX-P-563 (antibody, V domains shown)
VH: QVQLQESGPGLMKPSETLSLTCTVSGGSISSHYWSWIRQPPGKGLEWIGYIFYSGNINYNPSLKSRVTISVDTSKNQFSLKLRSVTTADTAVYYCARDRGGSYSYHFDCWGQGTLVTVSS
VL: DIQMTQSPSSVSASVGDRVTITCRASQSFAGWLAWYQQKPGKAPKLLIYAASTLQSGVPSRFSGSGSGTDFTLTISSLQPEDFATYYCQQANSFPLTFGGGTKVEIKR
Kd (hCFHR4): 1.05 nM

B11: ATX-P-577 (antibody, V domains shown)
VH: QVQLQESGPGLVKPSGTLSLTCAVSGGSISSSNWWTWVRQPPGKGLEWIGETYHDGSTNYNPSLKSRVTISVDKSKNQFSLKLSSVTAADTAVYYCLEFYFDYWGQGTLVTVSS
VL: DIQMTQSPSSLSASVGDRVTITCRASQDIRNDLGWYQQKPGKVPKRLIYAASSLQSGVPSRFSGSGSGTEFTLTISSLQPEDFASYYCLQYNNYPFTLGPGTKVDIKR
Kd (hCFHR4): 0.665 nM

B14: ATX-P-569 (antibody, V domains shown)
VH: EVQLVESGGGLAQFGRSLRLSCAASGFTFDDYAMHWLRQAPGMGLEWVSGISWNSGSIGYADSVKGRFTIARDNAKNSVHLQMNSLRAEDTALYYCAKDIGNGYTKGDVFDIWGQGTMVTVSS
VL: DIQMTQSPSTLSASVGDSVTITCRASQNIITWLAWYQQKPGKAPNLLIYKASSLESGVPSRFSGSGSGTEFTLTISSLQPDDFATYYCQQYSSYSYTFGQGTKLEIKR
Kd (hCFHR4b): 1.44 nM
Kd (hCFHR4): 1.44 nM
IC50 [1]: 12.1 nM
IC50 [2]: 12 nM

Results, then the binder that gave them:

Kd (hCFHR4b): 0.917 nM
Kd (hCFHR4): 0.917 nM
IC50 [1]: 7.6 nM
IC50 [2]: 7.6 nM
B2: ATX-P-603 (antibody, V domains shown)
VH: QVQLQESGPGLVKPSGTLSLTCAVSGGSISGSHWWSWFRQPPGKGLEWIGEIYHTGSTNKNPSLKSRVTISLDKSKNQFSLRLRSVTDADTAVYYCARDQYTGSPRDAFDIWGQGTMVTVSS
VL: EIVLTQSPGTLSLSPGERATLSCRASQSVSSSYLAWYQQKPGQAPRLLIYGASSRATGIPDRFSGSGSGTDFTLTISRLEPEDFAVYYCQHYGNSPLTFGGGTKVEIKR

Kd (hCFHR4b): 16.9 nM
Kd (hCFHR4): 16.9 nM
IC50 [1]: 5.94 nM
IC50 [2]: 5.9 nM
B5: ATX-P-595 (antibody, V domains shown)
VH: B6 VH with Y60F, S61N, P64A, Q85H, D102E, S103P, E107A, T108P, T109G
VL: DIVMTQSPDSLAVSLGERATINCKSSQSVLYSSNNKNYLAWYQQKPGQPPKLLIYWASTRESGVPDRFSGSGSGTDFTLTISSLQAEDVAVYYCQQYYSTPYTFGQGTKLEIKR

Kd (hCFHR4): 0.225 nM
B7: ATX-P-596 (antibody, V domains shown)
VH: EVQLVESGGGLVQPGRSLRLSCAASGFSFDDYAMHWVRQVPGKGLEWVSGISWTGGSVGYADPVKGRFTISRDNAKNSLYLQMNSLRPEDTALYYCAKDMGDGYSRNWPFDYWGQGTLVTVSS
VL: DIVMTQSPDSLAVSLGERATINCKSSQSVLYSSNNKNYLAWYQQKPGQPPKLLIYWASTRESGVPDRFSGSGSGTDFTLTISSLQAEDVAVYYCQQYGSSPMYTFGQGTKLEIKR

Kd (hCFHR4b): 7.39 nM
Kd (hCFHR4): 7.39 nM
IC50 [1]: 8.44 nM
IC50 [2]: 8.4 nM
B12: ATX-P-600 (antibody, V domains shown)
VH: EVQLVESGGGLVQPGRSLRLSCAASGFTFDDYAMHWVRQVPGRGLEWVSGISWSGGSIGYADSVKGRFTISRDNSKNSLYLQMNSLRAEDTALYYCTKDREDGYNYGGVFDYWGQGTLVTVSS
VL: EIVLTQSPGTLSLSPGERATLSCRASQNVRGSYLAWYQQKPGQAPRLLIYGASNRATDIPDRFSGSGSGTDFTLTISGLEPEDFVVYYCQQYGSSYTFGQGTKVEIKR

Kd (hCFHR4b): 0.326 nM
Kd (hCFHR4): 0.326 nM
IC50 [1]: 4.09 nM
IC50 [2]: 4 nM
B13: ATX-P-594 (antibody, V domains shown)
VH: QVQLQQSGPGLVKPSQTLSLTCAISGDSVSSNSASWNWIRQSPSRGLEWLGTTYYRSKWFNVYAVSVKSRITINPDTSKNQFSLHLNSVTPEDTAIYFCTRDRGDLLHWYFDLWGRGTLVTVSS
VL: EIVLTQSPGTLSLSPGERATLSCRASQSVSSSYLAWYQQKPGQSPRLLIYGASSRATGIPDRFSGSGSGTDFTLTISRLEPEDFAVYYCQQYGRSVTFGGGTKLEIKR

— US20250289873A1 (published 2025)
